Data on three variants can be found in IntAct's records for PubMed 16766694.

B1: Pyridoxal 5'-phosphate synthase subunit PDX1.3 (Arabidopsis thaliana (Mouse-ear cress)), Q8L940 (parent)
chain: MEGTGVVAVYGNGAITEAKKSPFSVKVGLAQMLRGGVIMDVVNAEQARIAEEAGACAVMALERVPADIRAQGGVARMSDPQMIKEIKQAVTIPVMAKARIGHFVEAQILEAIGIDYIDESEVLTLADEDHHINKHNFRIPFVCGCRNLGEALRRIREGAAMIRTKGEAGTGNIIEAVRHVRSVNGDIRVLRNMDDDEVFTFAKKLAAPYDLVMQTKQLGRLPVVQFAAGGVATPADAALMMQLGCDGVFVGSGIFKSGDPARRARAIVQAVTHYSDPEMLVEVSCGLGEAMVGINLNDEKVERFANRSE
partner: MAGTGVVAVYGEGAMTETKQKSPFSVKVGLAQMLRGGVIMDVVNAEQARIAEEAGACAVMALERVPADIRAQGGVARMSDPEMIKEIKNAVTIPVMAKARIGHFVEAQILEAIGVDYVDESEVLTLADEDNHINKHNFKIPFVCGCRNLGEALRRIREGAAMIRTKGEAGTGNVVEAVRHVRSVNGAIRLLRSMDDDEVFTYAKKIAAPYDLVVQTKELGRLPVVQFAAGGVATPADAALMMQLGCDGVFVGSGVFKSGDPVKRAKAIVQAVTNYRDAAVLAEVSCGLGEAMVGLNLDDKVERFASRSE
B2: Pyridoxal 5'-phosphate synthase subunit PDX1.3 (Arabidopsis thaliana (Mouse-ear cress)), Q8L940 (parent)
chain: B1 chain
partner: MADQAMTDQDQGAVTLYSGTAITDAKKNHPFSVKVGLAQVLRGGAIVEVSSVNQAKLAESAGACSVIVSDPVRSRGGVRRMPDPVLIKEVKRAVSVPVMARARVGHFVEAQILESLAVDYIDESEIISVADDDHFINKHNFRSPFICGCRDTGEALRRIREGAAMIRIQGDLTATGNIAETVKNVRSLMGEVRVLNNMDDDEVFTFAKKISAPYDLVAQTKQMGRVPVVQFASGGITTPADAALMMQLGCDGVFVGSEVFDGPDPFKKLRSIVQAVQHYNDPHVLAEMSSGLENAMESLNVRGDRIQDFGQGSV
B3: Pyridoxal 5'-phosphate synthase subunit PDX1.3 (Arabidopsis thaliana (Mouse-ear cress)), Q8L940 (parent)
chain: B1 chain
partner: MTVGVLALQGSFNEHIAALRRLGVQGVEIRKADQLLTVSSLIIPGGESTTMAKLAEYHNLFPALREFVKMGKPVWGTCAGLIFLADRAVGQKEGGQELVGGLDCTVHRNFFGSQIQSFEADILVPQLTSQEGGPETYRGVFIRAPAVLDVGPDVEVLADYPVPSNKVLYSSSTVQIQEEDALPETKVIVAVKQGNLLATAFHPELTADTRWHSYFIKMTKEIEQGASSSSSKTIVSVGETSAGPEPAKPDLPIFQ

In the first experiment the parent is B1. As to conditions: with pdx11_arath PDX11, O80448.
G54S: the “effect of a mutation on the interaction” value is given as “disrupting interaction”.

In another experiment the parent is B2. The conditions noted are these: with pdx12_arath PDX12, Q9ZNR6.
For G54S, the “effect of a mutation on the interaction” value is reported as “disrupting interaction”.

The next experiment covers variants of B3. The conditions noted are these: with pdx2_arath PDX2, Q8LAD0.
As for G54S, the “effect of a mutation on the interaction” value is on record as “disrupting interaction”.
